Measurements published in the supplement of paper PMC10201428.
± gives the standard deviation of the averaged measurements.

Test system: VchCAST RNA-guided transposition machinery (E. coli BL21(DE3) host, lacZ target)
Experiment: relative integration efficiency (T-RL orientation) vs wild-type transposon end (log2 (normalized fold change)); transposon end mutated: left end; higher = more efficient transposition
Experimental: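 Pooled, barcoded VchCAST (Tn6677) mini-transposon donor libraries; each variable transposon-end sequence sits in a fixed pDonor mini-transposon context (10-bp barcode and cargo not included). Left- or right-end libraries were co-transformed with pEffector (TniQ-Cascade, TnsABC, lacZ crRNA, T7, 0.1 mM IPTG) into E. coli BL21(DE3) and grown 18 h at 37 C. T-LR and T-RL junction amplicons were sequenced; output/input barcode fold change was normalised to the mean of four wild-type barcodes and log2-transformed. Two biological replicates; zero-count/undetected variants carry floor values (-10 / -15), censored here. Barcode uncoupling by PCR recombination adds noise.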

## AATGTTGTTGATGCAACCATAAAGTGATATTTAATAATTATTTATAATCAGCAACAACCATATATTGATATCTCACAAAACAACCATAAGTTGATATTTTTGTGAATCGAGTATTTCAGCAAAACTACTGCAGTAAGAAAGTTACTTCGTGG
  relative integration efficiency (log2): -7.72 ± 1.1

## AATGTTGTTGATGCAACCATAAAGTGATATTTAATAATTATTTATAATCAGCAACAACCATATATTGATATCTCCTTAACCACAAAAACAAAACAACCATAAGTTGATATTTTTGTGAATCGAGTATTTCAGCAAAACTACTGCAGTAAGAA
  relative integration efficiency (log2): -6.46 ± 1.4

## AATGTTGTTGATGCAACCATAAAGTGATATTTAATAATTATTTATAATCAGCAACCAACCATATATTGATATCTCACAAAACAACCATAAGTTGATATTTTTGTGAATCGAGTATTTCAGCAAAACTACTGCAGTAAGAAAGTTACTTCGTG
  relative integration efficiency (log2): -6.44 ± 0.52

## AATGTTGTTGATGCAACCATAAAGTGATATTTAATAATTATTTATAATCAGCAACCAACCATATATTGATATCTCTTAACCACAAAAACAAAACAACCATAAGTTGATATTTTTGTGAATCGAGTATTTCAGCAAAACTACTGCAGTAAGAA
  relative integration efficiency (log2): -5.89 ± 1.6

## AATGTTGTTGATGCAACCATAAAGTGATATTTAATAATTATTTATAATCAGCAACCATATATTGATATCTCACAAAACAACCATAAGTTGATATTTTTGTGAATCGAGTATTTCAGCAAAACTACTGCAGTAAGAAAGTTACTTCGTGGTAT
  relative integration efficiency (log2): -8.36 ± 0.35

## AATGTTGTTGATGCAACCATAAAGTGATATTTAATAATTATTTATAATCAGCAACCATATATTGATATCTCCAACTTAACCACAAAAACAAAACAACCATAAGTTGATATTTTTGTGAATCGAGTATTTCAGCAAAACTACTGCAGTAAGAA
  relative integration efficiency (log2): -6.03 ± 0.52

## AATGTTGTTGATGCAACCATAAAGTGATATTTAATAATTATTTATAATCAGCAACGGCCAACACCCCACCAACGCGCGGTCGCGAGACACCCCACCAACGCCTGGTCGCGGGGGTGTCCGATCTGATTTCAGCAAAACTACTGCAGTAAGAA
  relative integration efficiency (log2): -6.79 ± 1.6

## AATGTTGTTGATGCAACCATAAAGTGATATTTAATAATTATTTATAATCAGCAACTCAACCATATATTGATATCTCTAACCACAAAAACAAAACAACCATAAGTTGATATTTTTGTGAATCGAGTATTTCAGCAAAACTACTGCAGTAAGAA
  relative integration efficiency (log2): -4.84 ± 0.92

## AATGTTGTTGATGCAACCATAAAGTGATATTTAATAATTATTTATAATCAGCAACTTAACCAACCATATATTGATATCTCACAAAACAACCATAAGTTGATATTTTTGTGAATCGAGTATTTCAGCAAAACTACTGCAGTAAGAAAGTTACT
  relative integration efficiency (log2): -5.17 ± 1.5

## AATGTTGTTGATGCAACCATAAAGTGATATTTAATAATTATTTATAATCAGCAACTTAACCAACCATATATTGATATCTCCACAAAAACAAAACAACCATAAGTTGATATTTTTGTGAATCGAGTATTTCAGCAAAACTACTGCAGTAAGAA
  relative integration efficiency (log2): -2.66 ± 0.88

## AATGTTGTTGATGCAACCATAAAGTGATATTTAATAATTATTTATAATCAGCAACTTAACCACAAAACAACACGCGCGGTCGCGAGACACCCCACCAACGCCTGGTCGCGGGGGTGTCCGATCTGATTTCAGCAAAACTACTGCAGTAAGAA
  relative integration efficiency (log2): -7.6 ± 2.4

## AATGTTGTTGATGCAACCATAAAGTGATATTTAATAATTATTTATAATCAGCAACTTAACCACAAAACAACCATATATGTCGCGAGACACCCCACCAACGCCTGGTCGCGGGGGTGTCCGATCTGATTTCAGCAAAACTACTGCAGTAAGAA
  relative integration efficiency (log2): -6.15 ± 1.3

## AATGTTGTTGATGCAACCATAAAGTGATATTTAATAATTATTTATAATCAGCAACTTAACCACAAAACAACCATATATTGATAACAAAACAACCATAAGTTGATATTTTTGTGAATCGAGTATTTCAGCAAAACTACTGCAGTAAGAAAGTT
  relative integration efficiency (log2): -4.08 ± 0.82

## AATGTTGTTGATGCAACCATAAAGTGATATTTAATAATTATTTATAATCAGCAACTTAACCACAAAACAACCATATCGGTCGCGAGACACCCCACCAACGCCTGGTCGCGGGGGTGTCCGATCTGATTTCAGCAAAACTACTGCAGTAAGAA
  relative integration efficiency (log2): -6.09 ± 0.98

## AATGTTGTTGATGCAACCATAAAGTGATATTTAATAATTATTTATAATCAGCAACTTAACCACAAAAGTTGGTATATAACTATAGAGACAAAAGTTGGTATTCAACTATAAAATGTGAATCGAGTATTTCAGCAAAACTACTGCAGTAAGAA
  relative integration efficiency (log2): -6.13 ± 2.2

## AATGTTGTTGATGCAACCATAAAGTGATATTTAATAATTATTTATAATCAGCAACTTAACCACAAAATGTGAATCGAGTATTTCAGCAAAACTACTGCAACCATATATTGATATCTCACAAAACAACCATAAGTTGATATTTTCAGTAAGAA
  relative integration efficiency (log2): -6.39 ± 0.78

## AATGTTGTTGATGCAACCATAAAGTGATATTTAATAATTATTTATAATCAGCAACTTAACCACAAAATGTGAATCGAGTATTTCAGCCAACCATATATTGATATCTCACAAAACAACCATAAGTTGATATTTTAAAACTACTGCAGTAAGAA
  relative integration efficiency (log2): -5.8 ± 1.9

## AATGTTGTTGATGCAACCATAAAGTGATATTTAATAATTATTTATAATCAGCAACTTAACCACAAACACCAACGCGCGGTCGCGAGACACCCCACCAACGCCTGGTCGCGGGGGTGTCCGATCTGATTTCAGCAAAACTACTGCAGTAAGAA
  relative integration efficiency (log2): -6.34 ± 0.81

## AATGTTGTTGATGCAACCATAAAGTGATATTTAATAATTATTTATAATCAGCAACTTAACCACAACCATATATTGATATCTCACAAAACAACCATAAGTTGATATTTTTGTGAATCGAGTATTTCAGCAAAACTACTGCAGTAAGAAAGTTA
  relative integration efficiency (log2): -5.27 ± 0.97

## AATGTTGTTGATGCAACCATAAAGTGATATTTAATAATTATTTATAATCAGCAACTTAACCACCAACCATATATTGATATCTCAAAAACAAAACAACCATAAGTTGATATTTTTGTGAATCGAGTATTTCAGCAAAACTACTGCAGTAAGAA
  relative integration efficiency (log2): -2.83 ± 0.93

## AATGTTGTTGATGCAACCATAAAGTGATATTTAATAATTATTTATAATCAGCAACTTAACCACCAACCATATATTGATATCTCACAAAACAACCATAAGTTGATATTTTTGTGAATCGAGTATTTCAGCAAAACTACTGCAGTAAGAAAGTT
  relative integration efficiency (log2): -4.85 ± 1.1

## AATGTTGTTGATGCAACCATAAAGTGATATTTAATAATTATTTATAATCAGCAACTTAACCACCCCCACCAACGCGCGGTCGCGAGACACCCCACCAACGCCTGGTCGCGGGGGTGTCCGATCTGATTTCAGCAAAACTACTGCAGTAAGAA
  relative integration efficiency (log2): -6.56 ± 0.76

## AATGTTGTTGATGCAACCATAAAGTGATATTTAATAATTATTTATAATCAGCAACTTAACCCAACCATATATTGATATCTCACAAAAACAAAACAACCATAAGTTGATATTTTTGTGAATCGAGTATTTCAGCAAAACTACTGCAGTAAGAA
  relative integration efficiency (log2): -3.11 ± 0.98

## AATGTTGTTGATGCAACCATAAAGTGATATTTAATAATTATTTATAATCAGCAACTTAACCCAACCATATATTGATATCTCACAAAACAACCATAAGTTGATATTTTTGTGAATCGAGTATTTCAGCAAAACTACTGCAGTAAGAAAGTTAC
  relative integration efficiency (log2): -7.05 ± 1.7

## AATGTTGTTGATGCAACCATAAAGTGATATTTAATAATTATTTATAATCAGCAACTTAACCCACCCCACCAACGCGCGGTCGCGAGACACCCCACCAACGCCTGGTCGCGGGGGTGTCCGATCTGATTTCAGCAAAACTACTGCAGTAAGAA
  relative integration efficiency (log2): -6.3 ± 1.9

## AATGTTGTTGATGCAACCATAAAGTGATATTTAATAATTATTTATAATCAGCAACTTACAACACCCCACCAACGCGCGGTCGCGAGACACCCCACCAACGCCTGGTCGCGGGGGTGTCCGATCTGATTTCAGCAAAACTACTGCAGTAAGAA
  relative integration efficiency (log2): -5.66 ± 1.2

## AATGTTGTTGATGCAACCATAAAGTGATATTTAATAATTATTTATAATCAGCAACTTCCAACACCCCACCAACGCGCGGTCGCGAGACACCCCACCAACGCCTGGTCGCGGGGGTGTCCGATCTGATTTCAGCAAAACTACTGCAGTAAGAA
  relative integration efficiency (log2): -4.36 ± 1.2

## AATGTTGTTGATGCAACCATAAAGTGATATTTAATAATTATTTATAATCAGCCAACCATATATTGATATCTCAACTTAACCACAAAAACAAAACAACCATAAGTTGATATTTTTGTGAATCGAGTATTTCAGCAAAACTACTGCAGTAAGAA
  relative integration efficiency (log2): -7.27 ± 2.4

## AATGTTGTTGATGCAACCATAAAGTGATATTTAATAATTATTTATAATCAGCCAACCATATATTGATATCTCACAAAACAACCATAAGTTGATATTTTAACTTAACCACAAAATGTGAATCGAGTATTTCAGCAAAACTACTGCAGTAAGAA
  relative integration efficiency (log2): -6.91 ± 2.5

## AATGTTGTTGATGCAACCATAAAGTGATATTTAATAATTATTTATAATCATACCAGGCCAACACCCCACCAACGCGCGGTCGCGAGACACCCCACCAACGCCTGGTCGCGGGGGTGTCCGATCTGATTTCAGCAAAACTACTGCAGTAAGAA
  relative integration efficiency (log2): -6.02 ± 1.1

## AATGTTGTTGATGCAACCATAAAGTGATATTTAATAATTATTTATAATCATTGTGAGCGGATAACAACAACCATATATTGATATCTCACAAAACAACCATAAGTTGATATTTTTGTGAATCGAGTATTTCAGCAAAACTACTGCAGTAAGAA
  relative integration efficiency (log2): -3.2 ± 0.53

## AATGTTGTTGATGCAACCATAAAGTGATATTTAATAATTATTTATAATCCAACCATATATTGATATCTCACAAAACAACCATAAGTTGATATTTTTGTGAATCGAGTATTTCAGCAAAACTACTGCAGTAAGAAAGTTACTTCGTGGTATGG
  relative integration efficiency (log2): -6.76 ± 0.87

## AATGTTGTTGATGCAACCATAAAGTGATATTTAATAATTATTTATAATCCAACCATATATTGATATCTCAGCAACTTAACCACAAAAACAAAACAACCATAAGTTGATATTTTTGTGAATCGAGTATTTCAGCAAAACTACTGCAGTAAGAA
  relative integration efficiency (log2): -5.59 ± 1.3

## AATGTTGTTGATGCAACCATAAAGTGATATTTAATAATTATTTATACAACCATATATTGATATCTCACAAAACAACCATAAGTTGATATTTTTGTGAATCGAGTATTTCAGCAAAACTACTGCAGTAAGAAAGTTACTTCGTGGTATGGGAG
  relative integration efficiency (log2): -6.01 ± 0.81

## AATGTTGTTGATGCAACCATAAAGTGATATTTAATAATTATTTATCCGACTACCAGGCCAACACCCCACCAACGCGCGGTCGCGAGACACCCCACCAACGCCTGGTCGCGGGGGTGTCCGATCTGATTTCAGCAAAACTACTGCAGTAAGAA
  relative integration efficiency (log2): -6.94 ± 1.3
